The supplement of paper PMC10567573

B1: GFOD1 (parent)
chain: EEAEELAKEMSVPFYTSRIDEVLL
B2: ZNF263 (parent)
chain: EKPYKCPECGEIFAHSSNLLRHQR

Variants of: B1
Experiment: protein stability index of a GFP-peptide fusion (GPS, HEK-293T) (PSI 1-6); higher = more stable
Details: c terminus: a fixed tail appended
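Further: lentivirally expressed fusions sorted by FACS into six bins by GFP to DsRed ratio, PSI derived from sequencing read proportions per bin multiplied by bin number.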

Protein stability index of substitutions, site by site:
T16: Y 2.27 | R 3.27 | F 2.33 | C 3.81 | L 2.75 | V 3.45 | I 3.08
L23: D 5.11 | V 4.26 | G 3.66
D20: R 3.04 | M 2.33 | H 2.73 | P 3.55 | I 1.9 | W 2.59
A7: V 4.01 | N 4.02 | T 3.79 | I 2.77 | G 4 | Y 3.07 | K 3.32 | D 4.62
Y15: F 3.61 | I 3.62 | A 4.47 | Q 4.42
K8: M 3.29 | L 2.46 | F 2.25 | H 3.66 | I 2.76 | D 3.94
E4: N 3.92 | Y 2.64 | T 3.86 | H 3.4
V22: P 4.24 | L 3.1 | D 5.23 | M 4.29 | I 3.23
E5: P 3.96 | Y 3.98 | C 3.79 | V 2.58 | T 3.48 | M 2.95
E1: H 4.47 | K 4.03 | L 3.75 | N 2.83 | V 2.95
L6: C 4.38 | T 4.46 | V 3.94 | P 4.26 | K 4.54 | D 4.99
S11: A 3.51 | L 4.46 | E 4.74 | D 4.5 | K 3.17 | F 2.72 | N 2.23 | I 3.29 | M 3.67
M10: W 4.5 | D 4.7 | I 3.57 | G 4.22 | L 2.62 | T 4.03 | K 4.03 | H 4.53 | Q 4.26
E9: I 2.15 | D 3.93 | F 3.12 | K 2.66 | N 3.71 | Q 3.17 | P 3.01
I19: N 5 | R 4.57 | A 4.54 | S 4.75 | C 4 | L 3.69
E2: S 3.41 | C 3.06 | N 4 | D 3.72 | L 2.76 | W 3.66 | T 3.2
S17: V 3.12 | L 2.09 | E 4.27 | I 2.38 | F 1.79 | W 3 | D 4.98 | P 4.43 | Q 3.27 | Y 2.94 | C 2.52
R18: A 4.26 | Q 4.69 | W 3.71 | D 4.79 | F 3.17
P13: H 2.54 | R 4.11 | D 3.96 | W 1.97 | G 4.02
F14: T 4.51 | L 3.79 | S 4.37 | H 4.2 | G 3.4 | V 3.86 | R 4.22 | I 4.05 | P 4.85
V12: A 3.2 | C 3.71 | H 3.03 | P 4.14 | S 4.46 | T 4.2 | M 4.31 | E 4.38 | K 3.99 | N 4.56
E21: K 2.56 | M 1.78 | N 3.69 | A 2.66 | R 2.8 | L 1.61 | V 2.45
A3: G 3.95 | V 3.32
L24: S 4.41 | T 4.22 | Y 3.2 | V 4

Variants of: B2
Experiment: as above
Details: c terminus: a fixed tail appended

Protein stability index, by site and new letter:
H22: M 2.64 | K 2.16 | L 1.91 | P 1.35 | G 1.25 | A 2.88 | S 1.89 | E 2.55 | W 1.23 | Q 1.54 | D 3.17 | C 2.43 | N 2.35 | I 1.34 | T 1.43 | R 3.03 | F 1.66
L19: C 4.49 | K 2.73 | Y 2.54 | E 1.91 | M 2.38 | Q 1.78 | N 1.64 | F 2.68 | P 2.18 | V 2.92 | S 2.61 | A 1.84 | I 1.8 | T 2.16 | D 2.78 | H 3.63
R24: C 5.28 | V 3.54 | D 3.96 | A 4.17 | M 3.6 | N 3.92 | L 4.29 | E 4.38 | Q 3.74 | Y 2.68 | S 4.47 | I 3.25 | H 4.43 | P 3.44 | T 3.24 | F 3.32 | K 3.25 | W 2.74 | G 3.7
S17: H 3.51 | L 2.79 | Q 1.98 | W 2.24 | D 3.33 | N 2.75 | G 2.63 | I 2.89 | F 2.85 | C 4.32 | M 2.12 | A 2.43 | R 2.42 | T 2.06 | E 4.22 | Y 2.47 | V 2.08 | P 2.66
L20: F 1.78 | C 4.11 | Y 2.44 | E 2.75 | V 1.87 | H 3.79 | P 1.84 | A 1.79 | N 1.59 | K 2.62 | G 2.29 | Q 2.96 | R 2.59 | M 2.6 | I 2.04 | T 2.66 | D 3.29
H15: L 1.95 | M 1.56 | R 2.31 | Q 3.15 | F 2.94 | P 2.54 | A 2.3 | S 4.34 | I 1.7 | C 3.26 | T 3.55 | W 2.65 | D 3.96 | E 3.3 | Y 1.8 | G 2.55 | V 2.49 | N 3.62
N18: M 2.82 | W 2.06 | D 4.05 | I 2.37 | H 4.44 | C 3.75 | T 2.76 | P 2.55 | G 3.05 | F 2.54 | L 2.67 | Y 3.37 | A 4.13 | E 4.7 | V 4.54 | S 4.02
Q23: C 2.41 | A 2.21 | F 2.35 | T 2.25 | I 3.16 | Y 2.07 | K 2.9 | E 2.48 | L 2.86 | M 3.02 | D 1.82 | G 1.82 | H 2.34 | V 1.82 | P 2.11 | W 2.42 | N 2.88
R21: T 4.27 | M 3.58 | K 3.51 | L 2.82 | F 3.04 | Y 3.36 | H 3.35 | N 3.29 | W 3.43 | C 3.98 | E 4.38 | A 3.84 | G 2.01 | D 4.24 | S 2.89 | I 3.75 | V 2.85 | P 3.43
A14: S 2.38 | V 3.17 | R 2.57 | Q 2.45 | Y 2.79 | W 2.69 | P 2.7 | T 2.58
S16: M 3.32 | Y 3.26 | K 1.71 | P 2.81 | R 2.3 | L 3.26 | E 3.04 | C 2.73 | N 1.33 | G 2.48 | V 2.83 | T 1.84 | F 3.53 | I 2.96 | D 2.47 | Q 2.45 | W 3.44 | A 2.36 | H 2.55
